Legend:
[1] = molecular target: T1, recombinant human Tau-412 protein (human, UniProt P10636-7 1-412); experiment: SPR Biacore T200, mAb captured on Protein A, Tau-412 analyte, 1-to-1 model, chip A11/3
T1 construct: Analyte of the SPR study; also called human tau (1N4R, 412 amino acids)
Protocol: (§1) Kinetic data was obtained at a flow rate of 40 μL/min to minimize any potential mass transfer effects. Two repeats of the blank (no antigen) and the 2.5 nM concentration of the analyte were programmed into the kinetic run in order to check the stability of both the surface and analyte over the kinetic cycles. For the initial kinetic runs, 2-fold dilutions of Tau-412 from 40 nM to 0.156 nM were run. For kinetic analysis and on subsequent runs, an analyte range of 20 nM to 0.625 nM was selected. This range covered multiple analyte concentrations both above and below the reported KD.
(§2) The association phase was monitored for 500 seconds to allow some of the higher concentrations of analyte to reach steady state. In order to observe a sufficient signal decrease (>10%) during the dissociation phase of the kinetic cycle, dissociation was measured for 1200 seconds. As discussed in Section 5, the Fcs were allowed to stabilize for 600 seconds after each regeneration step. The signal from the reference channel Fc1 was subtracted from that of Fc2, Fc3 and Fc4.
(§3) The kinetic parameters for the interaction of Tau-412 with the 7 mAbs as measured using the Protein A capture system on the Biacore T200 are shown in Table F-2. To correct for differences in the capture level of the antibody between each binding cycle, a local Rₘₐₓ parameter was used in the 1-to-1 binding model. Kinetic analysis was performed in three independent runs using fresh preparations of Tau-412 and antibody. Run 1 and runs 2+3 used different vials of the antigen Tau-412; therefore the reported errors associated with the mean response probably represent variation in preparation of the analyte and differences in assay set-up and run. From run 1 to runs 2+3, the amount of antibody injected was adjusted to try to get closer to the target 300 RU capture levels.

[2] = molecular target: T1, recombinant human Tau-412 protein; experiment: SPR Biacore T200, mAb captured on Protein A, Tau-412 analyte, 1-to-1 model, chip A11/1
Protocol: as §1, §2, §3

PEP_2875809 = molecular target: T2, PEP_2875809; experiment: peptide array of 15-mers of human tau probed with the antibody; label LIN.AA (double alanine)
T2 peptide: TYGLGDRKDAAGYTM

PEP_2875825 = molecular target: T3, PEP_2875825; experiment: as above
T3 peptide: DQGGYTMHQAAEGDT

PEP_2875821 = molecular target: T4, PEP_2875821; experiment: as above
T4 peptide: RKDQGGYTMAADQEG

PEP_2875823 = molecular target: T5, PEP_2875823; experiment: as above
T5 peptide: KDQGGYTMHAAQEGD

PEP_2875827 = molecular target: T6, PEP_2875827; experiment: as above
T6 peptide: QGGYTMHQDAAGDTD

PEP_2875819 = molecular target: T7, PEP_2875819; experiment: as above
T7 peptide: DRKDQGGYTAAQDQE

PEP_2875817 = molecular target: T8, PEP_2875817; experiment: as above
T8 peptide: GDRKDQGGYAAHQDQ

PEP_2875811 = molecular target: T9, PEP_2875811; experiment: as above
T9 peptide: YGLGDRKDQAAYTMH

[3] = molecular target: T1, recombinant human Tau-412 protein; experiment: SPR Biacore T200, Protein A capture, mean of the VH1/VK2 runs
Protocol: as §1, §2, §3

PEP_2875816 = molecular target: T10, PEP_2875816; experiment: peptide array of 15-mers of human tau probed with the antibody; label LIN
T10 peptide: GDRKDQGGYTMHQDQ

PEP_2875822 = molecular target: T11, PEP_2875822; experiment: as above
T11 peptide: KDQGGYTMHQDQEGD

PEP_2875820 = molecular target: T12, PEP_2875820; experiment: as above
T12 peptide: RKDQGGYTMHQDQEG

PEP_2875812 = molecular target: T13, PEP_2875812; experiment: as above
T13 peptide: GLGDRKDQGGYTMHQ

PEP_2875806 = molecular target: T14, PEP_2875806; experiment: as above
T14 peptide: GTYGLGDRKDQGGYT

PEP_2875824 = molecular target: T15, PEP_2875824; experiment: as above
T15 peptide: DQGGYTMHQDQEGDT

PEP_2875810 = molecular target: T16, PEP_2875810; experiment: as above
T16 peptide: YGLGDRKDQGGYTMH

PEP_2875804 = molecular target: T17, PEP_2875804; experiment: as above
T17 peptide: AGTYGLGDRKDQGGY

PEP_2875808 = molecular target: T18, PEP_2875808; experiment: as above
T18 peptide: TYGLGDRKDQGGYTM

PEP_2875826 = molecular target: T19, PEP_2875826; experiment: as above
T19 peptide: QGGYTMHQDQEGDTD

PEP_2875814 = molecular target: T20, PEP_2875814; experiment: as above
T20 peptide: LGDRKDQGGYTMHQD

PEP_2875818 = molecular target: T21, PEP_2875818; experiment: as above
T21 peptide: DRKDQGGYTMHQDQE

T1 sequence (P10636 other isoform, or with tags, fused parts or gaps limits assumed): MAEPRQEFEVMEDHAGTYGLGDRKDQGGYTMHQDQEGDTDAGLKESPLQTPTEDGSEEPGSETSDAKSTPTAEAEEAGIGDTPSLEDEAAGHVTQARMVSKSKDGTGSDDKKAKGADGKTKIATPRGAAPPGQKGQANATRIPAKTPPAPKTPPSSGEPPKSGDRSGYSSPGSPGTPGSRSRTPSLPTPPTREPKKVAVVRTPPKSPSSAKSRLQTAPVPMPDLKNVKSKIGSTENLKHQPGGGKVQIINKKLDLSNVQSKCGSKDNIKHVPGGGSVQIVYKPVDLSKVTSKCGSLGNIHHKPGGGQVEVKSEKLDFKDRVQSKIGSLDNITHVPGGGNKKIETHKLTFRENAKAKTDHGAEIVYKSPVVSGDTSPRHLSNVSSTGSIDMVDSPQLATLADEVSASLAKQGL

B1: VH1/VK2 humanized anti-tau antibody (C2N-8E12) (antibody, human IgG4 S228P, kappa, V domains shown)
VH: EVKVVESGGGLVQPGGSMKLSCVVSGFTFSNYWVNWVRQAPGKGLEWVAQIRLKSDNYATHYEESVKGRFTISRDDSKSSVYLQMNNLRAEDSGIYYCTNWEDYWGQGTTVTVSS
VL: DIVLTQSPDSLAVSLGERATISCRASQSVSTSRYSYIHWYQQKPGQPPKLLIKYASNLESGVPSRFSGSGSGTDFTLNIHPLEPEDFATYYCHHSWEIPLTFGQGTKLEIKR
notes: Humanized recombinant IgG4 with S241P hinge mutation, human kappa light chain; also called C2N-8EI2
For B1, the Kd [1] was 1.95 nM, the koff [1] was 0.000632 s⁻¹ and the kon [1] was 325000 M⁻¹ s⁻¹. The Kd [2] was 2.18 nM, the koff [2] was 0.000611 s⁻¹ and the kon [2] was 280000 M⁻¹ s⁻¹. For the same binder, the “Binding Signal” value (PEP_2875809) was 2760, the “Binding Signal” value (PEP_2875825) was 2580 and the “Binding Signal” value (PEP_2875821) was 2790. The “Binding Signal” value (PEP_2875823) was 2710, the “Binding Signal” value (PEP_2875827) was 636 and the “Binding Signal” value (PEP_2875819) was 2580. The “Binding Signal” value (PEP_2875817) was 661, the “Binding Signal” value (PEP_2875811) was 1880 and the Kd [3] was 2.06 nM. For the same binder, the koff [3] was 0.000621 s⁻¹, the kon [3] was 302000 M⁻¹ s⁻¹ and the “Binding Signal” value (PEP_2875816) was 2700. The “Binding Signal” value (PEP_2875822) was 2680, the “Binding Signal” value (PEP_2875820) was 2780 and the “Binding Signal” value (PEP_2875812) was 2730. For the same binder, the “Binding Signal” value (PEP_2875806) was 1710, the “Binding Signal” value (PEP_2875824) was 2650 and the “Binding Signal” value (PEP_2875810) was 2670. For the same binder, the “Binding Signal” value (PEP_2875804) was 1290, the “Binding Signal” value (PEP_2875808) was 2590 and the “Binding Signal” value (PEP_2875826) was 789. For the same binder, the “Binding Signal” value (PEP_2875814) was 2750 and the “Binding Signal” value (PEP_2875818) was 2790.

From patent US20180371066A1 (C2N DIAGNOSTICS, published 2018)
